US9446226B2, “Drug-delivering composite structures” (Ramot at Tel-Aviv University Ltd., priority 2005, dated 2016)

Columns and labels:
[1] = In vitro paclitaxel release from composite fibrous structures; assay type: physicochemical; conditions: PBS 37° C.
Method: Cumulative release of paclitaxel from samples of composite fibrous structures was monitored and followed over a time period of four months. Samples of composite structures were immersed in PBS at 37° C. for 112 days. The medium was entirely removed periodically and assayed for drug release, and fresh medium was introduced. The paclitaxel content of each medium sample was determined using Agilent 1100 High Performance Liquid Chromatography (HPLC).

[2] = as obtained from Aldrich; cited from earlier work
[3] = In-vitro HRP release from composite fibrous structures; assay type: physicochemical
Method: Various samples of HRP-containing composite fibrous structures were used to determine the release kinetics of HRP over a time period of 90 days. The HRP release studies were conducted in closed 1 ml glass vessels in which the HRP-containing composite fibrous structures were immersed in 1 ml sterile double-distilled water containing sodium azide as preservative (0.05% w/w) at 37° C. The entire aqueous medium was replaced periodically by fresh medium and HRP content in the removed medium was determined by the micro BCA assay method, by measuring absorbance at 595 nm.
Cumulative HRP release profiles were determined relative to the initial amount of HRP in each of the tested structures, i.e., the amount of HRP released during the incubation period and the residual HPR remaining in the structures. All experiments were performed in triplicate.
Residual protein recovery front composite fibrous structures: Residual protein recovery from spent composite fibrous structure samples used in the abovementioned in-vitro release experiments was conducted according to a previously described method [Jeffery H et al., Pharm. Res., 1993, 10(3), pp 362-368].
Briefly, composite fibrous structures were extracted in 1 ml sodium dodecyl sulfate (SDS)/NaOH 5%/0.1 M solution for 48 hours at 37° C. Following extraction, the HRP concentration was estimated using a micro BCA assay method as described hereinabove. Based on these assays, the exact amount of the HRP loaded in each structure was determined and served for calculating the percentages cited in the assays above.

Row | paclitaxel released during the first 24 hours ([1]; emulsions containing 2.9% w/w paclitaxel) | paclitaxel released during the first 24 hours ([1]; fibers coated with emulsion containing 7.14% w/w paclitaxel) | burst effect of paclitaxel release during the first days ([1]; standard reference emulsion (17.5% w/v polymer, 1.43% w/w paclitaxel, O:A 2:1), nylon core) | Compound | initial enzymatic activity [2] | initial burst of HRP release ([3]; 1% w/w HRP load, O:A 4:1, water with sodium azide, 37° C.) | initial burst of HRP release (mean) ([3]; 5% w/w HRP load, O:A 4:1, water with sodium azide, 37° C.) | active enzyme released during the 90 day experiment ([3]; 5% w/w HRP load, O:A 4:1, 8:1, 16:1, coat-polymer 13%, 15%, 19% w/v, 90 days) | burst effect of HRP release ([3]; O:A 4:1 formulations, 5% w/w HRP load) | burst effect of HRP release ([3]; O:A 8:1, 5% w/w HRP, highest coat-polymer content (19% w/v)) | burst effect of HRP release ([3]; O:A 8:1, 5% w/w HRP, lowest coat-polymer content (13% w/v)) | burst effect of HRP release ([3]; O:A 16:1, 5% w/w HRP, highest coat-polymer content (19% w/v)) | burst effect of HRP release ([3]; O:A 16:1, 5% w/w HRP, lowest coat-polymer content (13% w/v)) | burst effect of HRP release ([3]; O:A 16:1 formulations, 5% w/w HRP load)
1 | 3% | 7% | less than 3% | CC(=O)O[C@H]1C(=O)[C@@]2(C)[C@H]([C@H](OC(=O)c3ccccc3)[C@]3(O)C[C@H](OC(=O)[C@H](O)[C@@H](NC(=O)c4ccccc4)c4ccccc4)C(C)=C1C3(C)C)[C@]1(OC(C)=O)CO[C@@H]1C[C@@H]2O [paclitaxel, Paclitaxel] | – | – | – | – | – | – | – | – | – | –
2 | – | – | – | Horseradish peroxidase [HRP] | 500 U/mg | 20% | 70% | at least 90% | 70-80% | 26% | 66% | 10% | 20% | 10-20%
